Laboratory results as given in the RNAGym collection of RNA variant scans (doi:10.1073/pnas.2313332121).

B1: TPR t1 (parent)
chain: GACCAAUCUGCCCUCAGAGCUCGAGAACAUCUUCGGAUGCAGAGGAGGCAGGCUUCGGUGGCGCGAUAGCGCCAACGUCCUCAACCUCCAAUGCAUCCCACCACAUGAUGAUGCCUGAAGAGCCUUGGUUUUUUG

Variants of: B1
Assay: polymerase ribozyme fitness, log enrichment relative to wild type (log ratio); higher = more active; in vitro selection for triplet polymerase activity
In short: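 Mutant libraries of each subunit of a heterodimeric triplet polymerase ribozyme were built by PCR and transcribed. Each library went through one round of in vitro selection in triplicate: annealing with biotinylated primer, partner subunit and triplets, frozen incubation at −7 °C, gel excision of extended constructs, streptavidin-bead capture and RT-PCR. Input and output libraries were Illumina-sequenced; only genotypes with ≥10 input reads and ≥1 read per output were kept. Fitness is log2(genotype enrichment/wild-type enrichment), using inverse-variance-weighted replicate averages.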

Variant	polymerase ribozyme fitness (log ratio)
C8A U78C G113C	-0.875
C8U G93C	0.0241
U9A A18G C82U C115U	-3.35
C8G C73U A91G C101G	-2.3
C8U C99U	-2.32
C8U U92A	-2.72
C8G A121G	1.62
C8U G51A C56A G120U	-3.67
C8U C40U	0.0119
C8A G10A G47A	-1.74
C8G C104A	-0.951
C8U C104G U106A C124G	-3.63
C8G A118U	1.5
C8G A74U	0.0385
C8U C72A C98U U116A G128C	-6.24
C8G U30C	-2.51
C8U C28G U109A	-4.64
C8U C94A	-0.617
C8G G39A G117U U132A	0.363
C8G U9G C12A G69A C88G U132A	-4.01
C8U C20U A37U A43U	-2.77

Variant	polymerase ribozyme fitness (log ratio)
C8G A43U U54C C72G C114A A118G	-5.83
C8A C80U A105C U112G G120C	-3.09
C8A G45U C56U A84C A95U	-1.21
C8A U21C G58C C82A U106G U132A	-1.35
C8U A24G G48C C115G	-3.87
C8G C11G G36U G71C U78G U132A	-4.02
C8G C102U	-1.57
C8U C28G	-1.19
C8A U112A G128U	0.095
C8U C73A C123A	2.02
C8A C89U	0.136
C8G U14A U55G C73G C97A	-4.31
C8U A46U	-0.626
C8U A46G	-0.00753
C8G A43U C53U U106A	-1.57
C8U U14C U78C U106A G120A	1.87
C8A C76U U87A U112A A121C U133G	0.984
C8G U38C A50U C115A	0.783
C8A C80G C82G C88A C114U	-6.78
C8A G135A	-0.0375
C8G C11U G63U C124A	1.09

Variant	polymerase ribozyme fitness (log ratio)
C8A U9G A26G G44A G45U G63U C115A	-3.15
C8U G58U A111G U126C	-1.57
C8U C12A A41U A46G G71A C89U	-2.07
C8G U96C C104U	0.578
C8G G58A U96A	0.339
C8G G23A G61U U109A U112A	-6.91
C8U G57U U112A	1.64
C8G G110C	-2.74
C8G G44C C70A A84C C115U	-5.29
C8G C86A A105C	-1.39
C8U C80G	-4.55
U9A A37U	0.568
C8G C20U A46U G52C A91G	-4.53
C8G A16U A18U G58C C79A U109A	-6.59
C8A C70G	-1.76
C8A U78C	0.0167
C8A G60A	-0.104
C8U U96G G110U	-2.02
C8G C80G	-4.19
C8U G93C C114U	-1.54
C8G G52U	0.359

Variant	polymerase ribozyme fitness (log ratio)
C8G U32G C101U C124A	-4.92
C8G A46C U81A C88U G113A	-1.64
C8A G61C A119G U126G	-2.44
C8G A68G	-2.09
C8U G19A U21C U55C	-2.54
C8G G17U A26U G120U	-2.91
C8G C124A	2.31
C8G A50G U106G G120A	1.23
C8U C15U U32C G71U C99U	-4.38
C8A G58C	0.847
C8G U78C C85U G113U U132A	-2.41
C8U C82U G113U	-2.67
C8G G60A C104U	-0.296
C8G U9G C73G C123A	1.1
C8G A41G G71A U78G G122U	-1.62
C8G A90C A91U A95G	-1.14
C8U A26U U59G	-2.5
C8U C15U G36A A68G C97U G120A	-1.91
C8U A29U U59C A121G	-1.03
C8U A121U	2.15
